Assay results taken from article PMC8892516, “Intragenic suppressors unravel the role of the SCREAM ACT-like domain for bHLH partner selectivity in stomatal development” (Proceedings of the National Academy of Sciences of the …, 2022).
One block for each binder: values may come before it.

Tests used:
Details in all cases: both partners purified
SCRM ACTL (405-494) = target: T1, SCRM ACTL (405-494) (Arabidopsis thaliana, UniProt Q9LSE2 405-494); assay: ITC; Malvern PEAQ-ITC, 25 °C, PBS pH 7.4; 150 μM SCRM ACTL/SCRM L484F ACTL injected into 15 μM SPCH ACTL/MUTE ACTL
T1 construct: SCREAM (SCRM, ICE1), Arabidopsis thaliana, At3G26744, ACT-like domain, residues 405-494; also called SCRM ACTL domain; source: E. coli BL21, purified (glutathione resin, thrombin, Superdex-200); not shown: GST, N-terminal, cleaved
T1 sequence (looked up): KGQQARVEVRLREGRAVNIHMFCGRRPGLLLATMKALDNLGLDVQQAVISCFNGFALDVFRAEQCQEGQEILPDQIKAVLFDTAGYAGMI

[1] = target: T2, SCRM ACTL_(L484F) (405-494) (Arabidopsis thaliana, UniProt Q9LSE2 405-494, L484F); assay: as above
T2 construct: SCREAM (SCRM, ICE1), Arabidopsis thaliana, At3G26744, ACT-like domain, residues 405-494, L484F (printed L485F in the methods); results, legends and the ITC methods print L484F; the cloning, CD and modelling methods print L485F; also called SCRM-ACTL_(L485F); SCRM L484F ACTL; source: E. coli BL21, purified (glutathione resin, thrombin, Superdex-200); not shown: GST, N-terminal, cleaved
T2 sequence (looked up): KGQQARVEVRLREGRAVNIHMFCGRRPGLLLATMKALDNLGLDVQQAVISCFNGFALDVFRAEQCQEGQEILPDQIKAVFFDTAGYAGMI

SPCH-ACTL (285-364) = target: T3, SPCH-ACTL (285-364) (Arabidopsis thaliana, UniProt Q700C7 285-364); assay: ITC; Malvern PEAQ-ITC; 150 µM SCRM ACTL/SCRM L484F ACTL injected into 15 µM SPCH ACTL/MUTE ACTL; PBS, pH 7.2 (Table S3; methods: pH 7.4); 25 °C; means of two experiments
T3 construct: also called SPCH ACTL domain; source: E. coli BL21, purified (glutathione resin, thrombin, Superdex-200); not shown: GST, N-terminal, cleaved
T3 sequence (looked up): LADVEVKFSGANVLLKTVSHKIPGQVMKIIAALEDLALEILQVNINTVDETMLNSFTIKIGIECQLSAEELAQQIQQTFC

MUTE-ACTL (114-202) = target: T4, MUTE-ACTL (114-202) (Arabidopsis thaliana, UniProt Q9M8K6 114-202); assay: as above
T4 construct: MUTE, Arabidopsis thaliana, C-terminal ACT-like domain, residues 114-202; also called MUTE ACTL domain; source: E. coli BL21, purified (glutathione resin, thrombin, Superdex-200); not shown: GST, N-terminal, cleaved
T4 sequence (looked up): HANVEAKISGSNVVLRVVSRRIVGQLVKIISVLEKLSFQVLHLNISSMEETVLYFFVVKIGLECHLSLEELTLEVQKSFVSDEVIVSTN

FAMA (ΔNFAMA) = target: T5, FAMA (ΔNFAMA) (Arabidopsis thaliana, Limits not printed. Start set by analogy with the printed ΔNSPCH 98-364 (one residue before the annotated bHLH). Runs to the native C-terminus. Tag or fusion carrier omitted.); assay: ITC; Malvern PEAQ-ITC; 40 µM SCRM/SCRMΔC injected into 4 µM SPCH/MUTE/FAMA; PBS, pH 7.2 (Table S1; methods: pH 7.4); 25 °C; single binding site model; means of two experiments
T5 chain: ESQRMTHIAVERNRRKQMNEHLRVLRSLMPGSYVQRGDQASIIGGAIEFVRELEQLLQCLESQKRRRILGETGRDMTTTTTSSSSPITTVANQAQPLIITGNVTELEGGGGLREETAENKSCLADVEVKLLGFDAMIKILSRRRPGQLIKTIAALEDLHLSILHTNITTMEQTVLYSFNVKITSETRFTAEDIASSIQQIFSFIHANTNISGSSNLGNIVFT

SPCH (ΔNSPCH, 98-364) = target: T6, SPCH (ΔNSPCH, 98-364) (Arabidopsis thaliana, UniProt Q700C7 98-364); assay: as above
T6 construct: the only recombinant SPCH with bHLH domain that the methods list is ΔNSPCH (98-364); source: E. coli BL21, purified (glutathione resin, thrombin, Superdex-200); not shown: GST, N-terminal, cleaved
T6 sequence (looked up): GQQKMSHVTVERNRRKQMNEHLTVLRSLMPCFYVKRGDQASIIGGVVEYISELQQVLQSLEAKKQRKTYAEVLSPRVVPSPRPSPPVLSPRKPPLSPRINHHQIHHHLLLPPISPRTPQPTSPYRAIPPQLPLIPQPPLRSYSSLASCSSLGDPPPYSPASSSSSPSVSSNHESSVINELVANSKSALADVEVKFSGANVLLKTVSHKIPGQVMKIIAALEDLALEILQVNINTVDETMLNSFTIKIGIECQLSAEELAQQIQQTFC

MUTE (1-202) = target: T7, MUTE (1-202) (Arabidopsis thaliana, UniProt Q9M8K6 1-202); assay: as above
T7 construct: MUTE, Arabidopsis thaliana, residues 1-202; MUTE (1-202) was made both as a GST fusion (pGEX-4T-1, thrombin-cleavable) and with an N-terminal His tag (pET28a); also called MUTE-HIS; MUTE-histag; source: E. coli BL21, purified (Ni-NTA or glutathione resin, Superdex-200)
T7 sequence (looked up): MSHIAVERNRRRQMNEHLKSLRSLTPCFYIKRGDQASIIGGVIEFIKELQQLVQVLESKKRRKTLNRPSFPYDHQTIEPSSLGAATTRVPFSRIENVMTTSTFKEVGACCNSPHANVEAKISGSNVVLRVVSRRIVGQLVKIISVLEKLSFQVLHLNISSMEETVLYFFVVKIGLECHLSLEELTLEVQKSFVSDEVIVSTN

ΔNFAMA, recombinant = target: T8, ΔNFAMA, recombinant (Arabidopsis thaliana, Limits not printed. Start set by analogy with the printed ΔNSPCH 98-364, which starts one residue before its annotated bHLH (99); FAMA bHLH is 194-245. Runs to the native C-terminus, including the ACT); assay: ITC; Malvern PEAQ-ITC, 25 °C, PBS pH 7.4; 40 μM SCRM/SCRMΔC injected into 4 μM SPCH/MUTE/FAMA; single binding site model
T8 chain: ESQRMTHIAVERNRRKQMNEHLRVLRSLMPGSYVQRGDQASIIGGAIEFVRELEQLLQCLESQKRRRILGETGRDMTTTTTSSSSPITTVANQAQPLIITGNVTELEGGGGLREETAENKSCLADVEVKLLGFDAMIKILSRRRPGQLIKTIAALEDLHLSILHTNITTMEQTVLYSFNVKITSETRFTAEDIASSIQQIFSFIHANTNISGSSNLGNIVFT

[2] = target: T9, ΔNSPCH (98-364), recombinant (Arabidopsis thaliana, UniProt Q700C7 98-364); assay: as above
T9 construct: BLI and ITC name it only SPCH; ΔNSPCH (98-364) is the only long recombinant SPCH construct that the methods list; also called purified SPCH; source: E. coli BL21, purified (glutathione resin, thrombin, Superdex-200); not shown: GST, N-terminal, cleaved
T9 sequence (looked up): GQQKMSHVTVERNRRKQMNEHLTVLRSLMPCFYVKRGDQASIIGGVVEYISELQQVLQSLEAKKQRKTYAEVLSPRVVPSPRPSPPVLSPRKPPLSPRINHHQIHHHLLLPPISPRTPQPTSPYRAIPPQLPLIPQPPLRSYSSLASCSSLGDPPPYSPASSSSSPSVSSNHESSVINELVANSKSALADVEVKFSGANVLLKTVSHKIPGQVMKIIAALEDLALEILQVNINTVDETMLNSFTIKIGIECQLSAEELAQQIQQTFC

[3] = target: T10, MUTE (1-202), recombinant (Arabidopsis thaliana, UniProt Q9M8K6 1-202); assay: as above
T10 construct: MUTE, Arabidopsis thaliana, residues 1-202; MUTE (1-202) was cloned both in pGEX-4T-1 (N-terminal GST, thrombin cleaved) and in pET28a (N-terminal His tag); also called purified MUTE; MUTE-HIS; source: E. coli BL21, purified (Ni-NTA, Superdex-200)
T10 sequence (looked up): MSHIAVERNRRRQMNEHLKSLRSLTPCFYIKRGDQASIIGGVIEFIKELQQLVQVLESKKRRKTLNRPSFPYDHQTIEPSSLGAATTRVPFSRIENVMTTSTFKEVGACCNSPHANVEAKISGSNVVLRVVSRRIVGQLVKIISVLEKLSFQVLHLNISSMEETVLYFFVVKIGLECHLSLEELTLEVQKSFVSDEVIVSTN

B3: SCRM (1-494), GST removed (natural protein, Arabidopsis thaliana, UniProt Q9LSE2 1-494, looked up)
chain: MGLDGNNGGGVWLNGGGGEREENEEGSWGRNQEDGSSQFKPMLEGDWFSSNQPHPQDLQMLQNQPDFRYFGGFPFNPNDNLLLQHSIDSSSSCSPSQAFSLDPSQQNQFLSTNNNKGCLLNVPSSANPFDNAFEFGSESGFLNQIHAPISMGFGSLTQLGNRDLSSVPDFLSARSLLAPESNNNNTMLCGGFTAPLELEGFGSPANGGFVGNRAKVLKPLEVLASSGAQPTLFQKRAAMRQSSGSKMGNSESSGMRRFSDDGDMDETGIEVSGLNYESDEINESGKAAESVQIGGGGKGKKKGMPAKNLMAERRRRKKLNDRLYMLRSVVPKISKMDRASILGDAIDYLKELLQRINDLHNELESTPPGSLPPTSSSFHPLTPTPQTLSCRVKEELCPSSLPSPKGQQARVEVRLREGRAVNIHMFCGRRPGLLLATMKALDNLGLDVQQAVISCFNGFALDVFRAEQCQEGQEILPDQIKAVLFDTAGYAGMI
notes: SCREAM (SCRM, ICE1), Arabidopsis thaliana, At3G26744, residues 1-494; Used for ITC; the methods tell thrombin cleavage of the GST-fused proteins in general, not for ITC by name; also called SCREAM; ICE1; source: E. coli BL21, purified (glutathione resin, thrombin, Superdex-200); not shown: GST, N-terminal, cleaved
stoichiometry N (FAMA (ΔNFAMA)): 0.91 | stoichiometry N (SPCH (ΔNSPCH, 98-364)): 1.02 | stoichiometry N (MUTE (1-202)): 1.03

B4: SCRM (1-494), recombinant (natural protein, Arabidopsis thaliana, UniProt Q9LSE2 1-494, looked up)
chain: MGLDGNNGGGVWLNGGGGEREENEEGSWGRNQEDGSSQFKPMLEGDWFSSNQPHPQDLQMLQNQPDFRYFGGFPFNPNDNLLLQHSIDSSSSCSPSQAFSLDPSQQNQFLSTNNNKGCLLNVPSSANPFDNAFEFGSESGFLNQIHAPISMGFGSLTQLGNRDLSSVPDFLSARSLLAPESNNNNTMLCGGFTAPLELEGFGSPANGGFVGNRAKVLKPLEVLASSGAQPTLFQKRAAMRQSSGSKMGNSESSGMRRFSDDGDMDETGIEVSGLNYESDEINESGKAAESVQIGGGGKGKKKGMPAKNLMAERRRRKKLNDRLYMLRSVVPKISKMDRASILGDAIDYLKELLQRINDLHNELESTPPGSLPPTSSSFHPLTPTPQTLSCRVKEELCPSSLPSPKGQQARVEVRLREGRAVNIHMFCGRRPGLLLATMKALDNLGLDVQQAVISCFNGFALDVFRAEQCQEGQEILPDQIKAVLFDTAGYAGMI
notes: SCREAM (SCRM, ICE1), Arabidopsis thaliana, At3G26744, residues 1-494; the purification methods tell thrombin cleavage; source: E. coli BL21, purified (glutathione resin, thrombin, Superdex-200); not shown: GST, N-terminal, cleaved
stoichiometry N (ΔNFAMA, recombinant): 1 | stoichiometry N [2]: 1 | stoichiometry N [3]: 1

The next lines start with the values.

Kd (SCRM ACTL (405-494)): 1200 nM | Kd [1]: 1700 nM
B1: SPCH-ACTL (285-364) (domain or fragment, Arabidopsis thaliana, UniProt Q700C7 285-364, looked up)
chain: LADVEVKFSGANVLLKTVSHKIPGQVMKIIAALEDLALEILQVNINTVDETMLNSFTIKIGIECQLSAEELAQQIQQTFC
notes: source: E. coli BL21, purified (glutathione resin, thrombin, Superdex-200); not shown: GST, N-terminal, cleaved

stoichiometry N (SPCH-ACTL (285-364)): 0.95 | stoichiometry N (MUTE-ACTL (114-202)): 0.95
B2: SCRM ACTL (405-494) (domain or fragment, Arabidopsis thaliana, UniProt Q9LSE2 405-494, looked up)
chain: KGQQARVEVRLREGRAVNIHMFCGRRPGLLLATMKALDNLGLDVQQAVISCFNGFALDVFRAEQCQEGQEILPDQIKAVLFDTAGYAGMI
notes: SCREAM (SCRM, ICE1), Arabidopsis thaliana, At3G26744, C-terminal ACT-like domain, residues 405-494; also called SCRM ACTL domain; source: E. coli BL21, purified (glutathione resin, Superdex-200)
